The record followed here is the RNAGym collection of RNA variant scans (doi:10.7554/elife.90254).

B1: LINE1-full (parent)
chain: UACGUAGGUGGUUUUCCCCUGAUAGUGCUAAGGGGGCCUGGAAGUUUGGACUGGGCAGAGCUCAACACAGCGUGGCAAAGUGGCUGUGGCUAGACUGCCUCUCUGGAUUCCUCGUCACUCAGCAGGGCAUCUCUGAGAGAAAUGCC

This series covers variants of B1. As to the kind of experiment: self-cleavage, relative activity (ratio to wild type); higher = more cleavage; in vitro, sequencing; the parent is a self-cleaving ribozyme.
Take UACGUAGGUGGUUUUCCCCUGAUAGUGCUAAGGGGGCCUGGCGGUUUGGACUGGGCAGAGCUCAACACAGCGUGGCAAAGUGGCUGUGGCUAGACUGCCUCUCUGGAUUCCUCGUCACUCAGCAGGGCAUCUCUGAGAGAAAUGCC: the self-cleavage was determined as 1.13.

Turning to UACGUAGGUGGUUUUCCCCUGAUAGUGCUAAGGGGGCCUGGCUGUUUGGACUGGGCAGAGCUCAACACAGCGUGGCAAAGUGGCUGUGGCUAGACUGCCUCUCUGGAUUCCUCGUCACUCAGCAGGGCAUCUCUGAGAGAAAUGCC, the self-cleavage was found to be 0.72.

As to UACGUAGGUGGUUUUCCCCUGAUAGUGCUAAGGGGGCCUGGCAGUUUGGACUGGGCAGAGCUCAACACAGCGUGGCAAAGUGGCUGUGGCUAGACUGCCUCUCUGGACUCCUCGUCACUCAGCAGGGCAUCUCUGAGAGAAAUGCC, the self-cleavage stood at 0.8.

For UACGUAGGUGGUUUUCCCCUGAUAGUGCUAAGGGGGCCUGUAAGUUUGGACUGGGCAGAGCUCAACACAGCGUGGCAAAGUGGCUGUGGCUAGACUGCCUCUCUGGAUUCCUCGUCACUCAGCAGGGCAUCUCUGAGAGGAAUGCC, the self-cleavage stood at 1.14.

With UACGUAGGUGGUUUUCCCCUGAUAGUGCUAAGGGGGCCUGUAAGUUUGGACUGGGCAGAGCUCAACACAGCGUGGCAAAGUGGCUGUGGCUAGACUGCCUCUCUGGAUUCCUCGUCACUCAGCAGGGCAUCUCUGAGAGAAAUGUC, the self-cleavage was 0.75.

As for UACGUAGGUGGUUUUCCCCUGAUAGUGCUAAGGGGGCCUGGCAGUUUGGACUGGGCAGAGCUCAACACAGCGUGGCAAAGUGGCUGUGGCUAGACUGCCUCUCUGGAUUCCUCGUCACUCAGCAGGGCAUCUCUGAGAGAAAUGCC, the self-cleavage was 0.92.

Take UACGUAGGUGGUUUUCCCCUGAUAGUGCUAAGGGGGCCUGUAAGUUUGGACUGGGCAGAGCUCAACACAGCGUGGCAAAGUGGCUGUGGCUAGACUGCCUCUCUGGAUUCCUCGUCACUCAGCAGGGCAUCUCUGAGAGAAAUGCC: the self-cleavage was determined as 1.19.

For the variant UACGUAGGUGGUUUUCCCCUGAUAGUGCUAAGGGGGCCUGCAAGUUUGGACUGGGCAGAGCUCAACACAGCGUGGCAAAGUGGCUGUGGCUAGACUGCCUCUCUGGAUUCCUCGUCACUCAGCAGGGCAUCUCUGAGAGAAAUGCC, the self-cleavage was 1.22.

Regarding UACGUAGGUGGUUUUCCCCUGAUAGUGCUAAGGGGGCCUGAAAGUUUGGACUGGGCAGAGCUCAACACAGCGUGGCAAAGUGGCUGUGGCUAGACUGCCUCUCUGGAUUCCUCGUCACCCAGCAGGGCAUCUCUGAGAGAAAUGCC, the self-cleavage was 1.15.

UACGUAGGUGGUUUUCCCCUGAUAGUGCUAAGGGGGCCUGAAAGUUAGGACUGGGCAGAGCUCAACACAGCGUGGCAAAGUGGCUGUGGCUAGACUGCCUCUCUGGAUUCCUCGUCACUCAGCAGGGCAUCUCUGAGAGAAAUGCC: the self-cleavage stood at 1.77.

UACGUAGGUGGUUUUCCCCUGAUAGUGCUAAGGGGGCCUGGCAGUUUGGACUGGGCAGAGCUCAACACAGCGUGGCAAAGUGGCUGUGGCUCGACUGCCUCUCUGGAUUCCUCGUCACUCAGCAGGGCAUCUCUGAGAGAAAUGCC: the self-cleavage came to 0.

For UACGUAGGUGGUUUUCCCCUGAUAGUGCUAAGGGGGCCUGGCAGUUUGGACUGGGCAGAGCUCAACACAGCGUGGCAAAGUGGCUGUGGCUAGGCUGCCUCUCUGGAUUCCUCGUCACUCAGCAGGGCAUCUCUGAGAGAAAUGCC, the self-cleavage came to 0.28.

Turning to UACGUAGGUGGUUUUCCCCUGAUAGUGCUAAGGGGGCCUGAAAGUUUGGACUGGGCAGAGCUCAACACAGCGUGGCAAAGUGGCUGUGGCUAGACUGCCUCUCUGGAUUCCUCGUCACUCAGCAAGGCAUCUCUGAGAGAAAUGCC, the self-cleavage was determined as 1.46.

With UACGUAGGUGGUUUUCCCCUGAUAGUGCUAAGGGGGCCUGAAAGUUUGGACUGGGCAGAGCUCAACACAGCGUGGCAAAGUGGCUGUGGCUAGACUGCCUCUCUGGAUUCCUCGUCACUCAGCAGGGCAUCCCUGAGAGAAAUGCC, the self-cleavage stood at 1.25.

With UACGUAGGUGGUUUUCCCCUGAUAGUGCUAAGGGGGCCUGGCAGUUUGGACUGGGCAGGGCUCAACACAGCGUGGCAAAGUGGCUGUGGCUAGACUGCCUCUCUGGAUUCCUCGUCACUCAGCAGGGCAUCUCUGAGAGAAAUGCC, the self-cleavage was determined as 0.45.

For UACGUAGGUGGUUUUCCCCUGAUAGUGCUAAGGGGGCCUGUAAGUUUGGACUGGGCAGAGCUCAACACAGCGUGGCAAAGUGGCUGUGGCUAGACUGCCCCUCUGGAUUCCUCGUCACUCAGCAGGGCAUCUCUGAGAGAAAUGCC, the self-cleavage came to 1.28.

As to UACGUAGGUGGUUUUCCCCUGAUAGUGCUAAGGGGGCCUGGCAGUUUGGACUGGGCAGAGCUCAACACAGCGUGGCAAAGUGGCUGUGGCUAGACUCCCUCUCUGGAUUCCUCGUCACUCAGCAGGGCAUCUCUGAGAGAAAUGCC, the self-cleavage is 0.11.

As for UACGUAGGUGGUUUUCCCCUGAUAGUGCUAAGGGGGCCUGUAAGUUUGGACUGGGCAGAGCUCAACACAGCGUGGCAAAGUGGCUGUGGCUAGACUGCCUCUCUGGAUUCCUCGACACUCAGCAGGGCAUCUCUGAGAGAAAUGCC, the self-cleavage turned out to be 1.29.

With UACGUAGGUGGUUUUCCCCUGAUAGUGCUAAGGGGGCCUGUAAGUUUGGACUGGGCAGAGCUCAACACAGCGUGGCAAAGUGGCUGUGGCUAGACUGCCUCUAUGGAUUCCUCGUCACUCAGCAGGGCAUCUCUGAGAGAAAUGCC, the self-cleavage worked out at 1.11.

In the case of UACGUAGGUGGUUUUCCCCUGAUAGUGCUAAGGGGGCCUGGCAGUUUGGACUGGGCAGAGCUCAACACAGCGUGGCAAAGUGGCUGUGGCUAGACUGCCUCUCUGGAUUCCUCGUCACUCAGCGGGGCAUCUCUGAGAGAAAUGCC, the self-cleavage is 0.79.

UACGUAGGUGGUUUUCCCCUGAUAGUGCUAAGGGGGCCUGAAAGUUUGGACUGGGCAGAGCUCAACACAGCGUGGCAAAGUGGCGGUGGCUAGACUGCCUCUCUGGAUUCCUCGUCACUCAGCAGGGCAUCUCUGAGAGAAAUGCC: the self-cleavage came to 0.09.

For the variant UACGUAGGUGGUUUUCCCCUGAUAGUGCUAAGGGGGCCUGAAAGUUUGGACUGGGCAGAGCUCAACACAGCGUGGCAAAGUGGCAGUGGCUAGACUGCCUCUCUGGAUUCCUCGUCACUCAGCAGGGCAUCUCUGAGAGAAAUGCC, the self-cleavage was 0.

Consider UACGUAGGUGGUUUUCCCCUGAUAGUGCUAAGGGGGCCUGAAAGUUUGGACUGGGCAGAGCUCAACACAGCGUGGCAAAGUGGCCGUGGCUAGACUGCCUCUCUGGAUUCCUCGUCACUCAGCAGGGCAUCUCUGAGAGAAAUGCC, for which the self-cleavage stood at 0.05.

With UACGUAGGUGGUUUUCCCCUGAUAGUGCUAAGGGGGCCUGGCAGUUUGGACUGGGCAGAGCUCAACACAGCGUGGCAAAGUGGCUGUGGCUAGACUGCCUCUCUGGAUUCCUCGUCACUCAGCAGGGCAUCUCUGAGGGAAAUGCC, the self-cleavage came out at 1.05.

On to UACGUAGGUGGUUUUCCCCUGAUAGUGCUAAGGGGGCCUGAAAGUUUGGACUGGGCAGAGCUCAACACAGCGUGGCAAAGUGGCUGUGGCUAGACUGCCUCACUGGAUUCCUCGUCACUCAGCAGGGCAUCUCUGAGAGAAAUGCC, for which the self-cleavage was 1.05.

Take UACGUAGGUGGUUUUCCCCUGAUAGUGCUAAGGGGGCCUGCAAGUUUGGACUGGGCAGAGCUCAACACAGCGUGGCAAAGUGGCUGUGGCUAGACUGCCUCUCUGGAUUCCUCGACACUCAGCAGGGCAUCUCUGAGAGAAAUGCC: the self-cleavage worked out at 1.88.

In the case of UACGUAGGUGGUUUUCCCCUGAUAGUGCUAAGGGGGCCUGUAAGUUUGGACUGGGCAGAGCUCAACACAGCGUGGCAAAGUGGCUGUGGCUAGGCUGCCUCUCUGGAUUCCUCGUCACUCAGCAGGGCAUCUCUGAGAGAAAUGCC, the self-cleavage is 0.05.

For the variant UACGUAGGUGGUUUUCCCCUGAUAGUGCUAAGGGGGCCUGUAAGUUUGGACUGGGCAGAGCUCAACACAGCGUGGCAAAGUGGCUGUGGCUAGACUGCCUCUCUGGAUUCCUCGUCACUCAGCAGGGCAUCUCUGAGAGAAACGCC, the self-cleavage came to 1.47.

Turning to UACGUAGGUGGUUUUCCCCUGAUAGUGCUAAGGGGGCCUGAAAGUUUGGACUGGGCAGAGCCCAACACAGCGUGGCAAAGUGGCUGUGGCUAGACUGCCUCUCUGGAUUCCUCGUCACUCAGCAGGGCAUCUCUGAGAGAAAUGCC, the self-cleavage turned out to be 0.08.

With UACGUAGGUGGUUUUCCCCUGAUAGUGCUAAGGGGGCCUGUAAGUUUGGACUGGGCAGAGCCCAACACAGCGUGGCAAAGUGGCUGUGGCUAGACUGCCUCUCUGGAUUCCUCGUCACUCAGCAGGGCAUCUCUGAGAGAAAUGCC, the self-cleavage came out at 0.04.

UACGUAGGUGGUUUUCCCCUGAUAGUGCUAAGGGGGCCUGUAAGUUUGGACUGGGCAGAGCACAACACAGCGUGGCAAAGUGGCUGUGGCUAGACUGCCUCUCUGGAUUCCUCGUCACUCAGCAGGGCAUCUCUGAGAGAAAUGCC: the self-cleavage came to 0.04.

For the variant UACGUAGGUGGUUUUCCCCUGAUAGUGCUAAGGGGGCCUGGCAGUUUGGACUAGGCAGAGCUCAACACAGCGUGGCAAAGUGGCUGUGGCUAGACUGCCUCUCUGGAUUCCUCGUCACUCAGCAGGGCAUCUCUGAGAGAAAUGCC, the self-cleavage stood at 1.22.

On to UACGUAGGUGGUUUUCCCCUGAUAGUGCUAAGGGGGCCUGCAAGUUUGGACUGGGCAGAGCUCAACACAGCGUGGCAAAGUGGCUGUGGCUAGACUGCCUCUCUGGAUUCCUCGUCACUCAGCAGGGCAUCUCCGAGAGAAAUGCC, for which the self-cleavage was found to be 1.76.

For UACGUAGGUGGUUUUCCCCUGAUAGUGCUAAGGGGGCCUGAAAGUUUGGACUGGGCAGAGCUCAACACAGCGUGGCAAAGUGGCUGUGGCUAGACUGCCUCUCUGGAUUCCCCGUCACUCAGCAGGGCAUCUCUGAGAGAAAUGCC, the self-cleavage was found to be 1.67.

Take UACGUAGGUGGUUUUCCCCUGAUAGUGCUAAGGGGGCCUGCAAGUUUGGACUGGGCAGAGCUCAACACAGCGUGGCAAAGUGGCUGUGGCUAGACUGCCUCUCUGGAUUCCUCGUCACUCAGCAGGGCAUCACUGAGAGAAAUGCC: the self-cleavage was determined as 1.35.

In the case of UACGUAGGUGGUUUUCCCCUGAUAGUGCUAAGGGGGCCUGUAAGUUUGGACUGGGCAGAGCUCAACACAGCGUGGCAAAGUGGCUGUGGCUAGACUGCCUCUCUGGAUUCCUCGUCACUCGGCAGGGCAUCUCUGAGAGAAAUGCC, the self-cleavage was 1.53.

On to UACGUAGGUGGUUUUCCCCUGAUAGUGCUAAGGGGGCCUGUAAGAUUGGACUGGGCAGAGCUCAACACAGCGUGGCAAAGUGGCUGUGGCUAGACUGCCUCUCUGGAUUCCUCGUCACUCAGCAGGGCAUCUCUGAGAGAAAUGCC, for which the self-cleavage was 1.14.

With UACGUAGGUGGUUUUCCCCUGAUAGUGCUAAGGGGGCCUGCAAGUAUGGACUGGGCAGAGCUCAACACAGCGUGGCAAAGUGGCUGUGGCUAGACUGCCUCUCUGGAUUCCUCGUCACUCAGCAGGGCAUCUCUGAGAGAAAUGCC, the self-cleavage turned out to be 0.25.

With UACGUAGGUGGUUUUCCCCUGAUAGUGCUAAGGGGGCCUGGCAGUUUGGACUGGGCAGAGCUCAACACAGCGUGGCAAAGUGGCUGUGGCUAAACUGCCUCUCUGGAUUCCUCGUCACUCAGCAGGGCAUCUCUGAGAGAAAUGCC, the self-cleavage was found to be 0.03.
